The series addresses PARP-1 (UniProt P09874). The experiment in a line: EMSA. The following applies: EMSA: 20 mM Tris-HCl pH 8, 30 mM KCl, 1.5 mM MgCl2, 1 mM DTT, 8% glycerol, 50 uM ZnAc, 2.5 ng/mL poly[dI-dC], 25 C, 50 nM DNA; pull-down: 20 mM Tris-HCl pH ….
Sequence of PARP-1 (P09874 2-1014): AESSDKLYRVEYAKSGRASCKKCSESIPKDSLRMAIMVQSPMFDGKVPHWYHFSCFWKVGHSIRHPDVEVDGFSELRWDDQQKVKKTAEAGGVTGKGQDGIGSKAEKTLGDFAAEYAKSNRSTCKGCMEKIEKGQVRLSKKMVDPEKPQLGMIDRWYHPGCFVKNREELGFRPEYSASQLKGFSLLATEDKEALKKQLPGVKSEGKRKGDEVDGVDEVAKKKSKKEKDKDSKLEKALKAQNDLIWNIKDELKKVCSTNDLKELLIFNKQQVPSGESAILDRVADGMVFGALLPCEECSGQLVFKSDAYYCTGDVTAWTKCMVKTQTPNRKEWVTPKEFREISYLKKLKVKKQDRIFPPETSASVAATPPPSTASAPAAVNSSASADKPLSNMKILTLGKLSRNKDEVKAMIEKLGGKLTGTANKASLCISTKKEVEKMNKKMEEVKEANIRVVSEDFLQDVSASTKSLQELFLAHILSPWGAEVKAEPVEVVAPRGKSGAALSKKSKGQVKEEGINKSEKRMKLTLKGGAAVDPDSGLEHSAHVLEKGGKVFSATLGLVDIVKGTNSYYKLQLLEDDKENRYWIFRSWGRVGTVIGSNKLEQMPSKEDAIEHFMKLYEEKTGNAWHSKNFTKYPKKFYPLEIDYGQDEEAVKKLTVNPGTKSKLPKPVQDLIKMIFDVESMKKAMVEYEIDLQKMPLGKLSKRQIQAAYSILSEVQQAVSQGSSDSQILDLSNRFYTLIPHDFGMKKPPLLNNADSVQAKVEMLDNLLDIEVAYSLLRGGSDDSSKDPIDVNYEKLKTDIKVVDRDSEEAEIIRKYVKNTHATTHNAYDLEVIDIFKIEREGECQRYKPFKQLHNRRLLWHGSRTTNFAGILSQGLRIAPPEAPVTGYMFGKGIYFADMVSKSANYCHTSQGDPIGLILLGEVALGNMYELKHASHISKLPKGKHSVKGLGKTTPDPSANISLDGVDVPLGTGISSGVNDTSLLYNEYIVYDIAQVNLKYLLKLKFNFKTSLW
Sequence “AGGGCGGTGTGGGAAGAGGGAAGAGGGGGAGG [Cy5.5-32R (G4 32R)]” showed a Kd of 200 nM. As to “CGGGCCGGCGGGGGAGGAGCGGGGGCCGGGC [Cy5.5-mid2 (G4 mid2)]”, the Kd came out at 370 nM.

For the sequence “CGGGGAGAAGGAGGGGGCCGGGCCGGGC [Cy5.5-mid1 (G4 mid1)]”, the Kd came to 360 nM.

The record behind these values is article PMC7504130.
